Assay in all cases: SPR, mAb captured, C2 mutant analyte;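 also: Anti-C2 mAbs captured on goat anti-human IgG Biacore CM5 chips, alanine or serine C2 surface mutants flowed over at 37 °C, double-referenced sensorgrams fitted to a 1:1 binding model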
For orientation: SPR reads the build-up and loss of mass on a sensor chip optically.

For one assay, the target named is T1, human C2 A326S (human, UniProt P06681 21-752).
T1 sequence: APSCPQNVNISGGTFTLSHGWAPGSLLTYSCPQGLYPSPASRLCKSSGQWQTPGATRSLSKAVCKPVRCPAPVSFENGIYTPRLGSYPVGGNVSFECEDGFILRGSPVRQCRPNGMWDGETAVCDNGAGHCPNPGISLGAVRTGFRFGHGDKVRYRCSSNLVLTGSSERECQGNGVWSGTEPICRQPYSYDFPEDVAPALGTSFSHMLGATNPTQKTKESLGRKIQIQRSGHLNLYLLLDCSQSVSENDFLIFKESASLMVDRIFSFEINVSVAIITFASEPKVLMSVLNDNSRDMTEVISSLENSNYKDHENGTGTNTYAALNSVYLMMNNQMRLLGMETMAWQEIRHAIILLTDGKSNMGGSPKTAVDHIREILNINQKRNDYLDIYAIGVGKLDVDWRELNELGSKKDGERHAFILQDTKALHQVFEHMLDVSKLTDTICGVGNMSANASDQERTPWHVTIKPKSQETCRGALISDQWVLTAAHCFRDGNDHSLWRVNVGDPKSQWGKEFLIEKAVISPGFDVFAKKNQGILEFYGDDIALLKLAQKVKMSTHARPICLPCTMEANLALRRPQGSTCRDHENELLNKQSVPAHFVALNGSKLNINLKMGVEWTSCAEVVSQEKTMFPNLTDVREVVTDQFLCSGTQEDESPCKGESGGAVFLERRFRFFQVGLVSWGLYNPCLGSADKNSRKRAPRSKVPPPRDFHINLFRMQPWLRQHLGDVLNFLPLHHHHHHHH

For a further assay, the target named is T2, human C2 G466A (human, UniProt P06681 21-752).
T2 sequence: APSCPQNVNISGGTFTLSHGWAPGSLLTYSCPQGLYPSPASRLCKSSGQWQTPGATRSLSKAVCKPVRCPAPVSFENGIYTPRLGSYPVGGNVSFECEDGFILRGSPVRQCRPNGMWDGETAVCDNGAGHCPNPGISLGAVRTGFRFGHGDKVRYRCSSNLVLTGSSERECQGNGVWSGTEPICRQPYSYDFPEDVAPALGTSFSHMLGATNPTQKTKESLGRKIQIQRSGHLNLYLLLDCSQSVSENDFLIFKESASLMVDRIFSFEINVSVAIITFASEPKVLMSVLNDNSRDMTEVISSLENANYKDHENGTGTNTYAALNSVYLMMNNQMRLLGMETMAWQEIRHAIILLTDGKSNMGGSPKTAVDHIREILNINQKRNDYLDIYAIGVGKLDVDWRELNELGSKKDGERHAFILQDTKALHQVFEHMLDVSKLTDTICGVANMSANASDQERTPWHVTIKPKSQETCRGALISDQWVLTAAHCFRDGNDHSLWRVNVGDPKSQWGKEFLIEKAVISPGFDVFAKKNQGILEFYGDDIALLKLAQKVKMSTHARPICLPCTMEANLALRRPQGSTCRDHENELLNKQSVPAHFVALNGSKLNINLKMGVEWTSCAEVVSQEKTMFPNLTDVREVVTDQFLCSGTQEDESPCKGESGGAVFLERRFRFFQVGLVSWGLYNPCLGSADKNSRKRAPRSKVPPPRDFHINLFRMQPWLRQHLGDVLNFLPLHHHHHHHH

For a further assay, the target named is T3, human C2 D282A (human, UniProt P06681 21-752).
T3 sequence: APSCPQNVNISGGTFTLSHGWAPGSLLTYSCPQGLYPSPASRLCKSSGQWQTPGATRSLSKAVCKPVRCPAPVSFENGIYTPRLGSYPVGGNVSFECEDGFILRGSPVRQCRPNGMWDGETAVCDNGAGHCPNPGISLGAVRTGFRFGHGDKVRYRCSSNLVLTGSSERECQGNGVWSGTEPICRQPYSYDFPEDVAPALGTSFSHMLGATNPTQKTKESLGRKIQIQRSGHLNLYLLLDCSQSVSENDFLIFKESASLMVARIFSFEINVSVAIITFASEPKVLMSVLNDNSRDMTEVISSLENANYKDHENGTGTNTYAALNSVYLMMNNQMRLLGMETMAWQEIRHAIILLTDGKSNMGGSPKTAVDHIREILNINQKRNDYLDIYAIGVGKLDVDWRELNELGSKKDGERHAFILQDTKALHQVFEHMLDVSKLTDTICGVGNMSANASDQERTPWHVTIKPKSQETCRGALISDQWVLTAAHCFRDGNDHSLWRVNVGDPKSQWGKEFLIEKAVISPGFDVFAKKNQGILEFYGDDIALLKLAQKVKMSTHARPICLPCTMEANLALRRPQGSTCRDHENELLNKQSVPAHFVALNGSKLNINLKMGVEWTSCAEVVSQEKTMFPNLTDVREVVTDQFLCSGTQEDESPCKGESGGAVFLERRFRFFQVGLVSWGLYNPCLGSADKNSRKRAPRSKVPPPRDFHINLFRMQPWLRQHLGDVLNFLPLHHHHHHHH

Another assay deals with T4, human C2 E433A (human, UniProt P06681 21-752).
T4 sequence: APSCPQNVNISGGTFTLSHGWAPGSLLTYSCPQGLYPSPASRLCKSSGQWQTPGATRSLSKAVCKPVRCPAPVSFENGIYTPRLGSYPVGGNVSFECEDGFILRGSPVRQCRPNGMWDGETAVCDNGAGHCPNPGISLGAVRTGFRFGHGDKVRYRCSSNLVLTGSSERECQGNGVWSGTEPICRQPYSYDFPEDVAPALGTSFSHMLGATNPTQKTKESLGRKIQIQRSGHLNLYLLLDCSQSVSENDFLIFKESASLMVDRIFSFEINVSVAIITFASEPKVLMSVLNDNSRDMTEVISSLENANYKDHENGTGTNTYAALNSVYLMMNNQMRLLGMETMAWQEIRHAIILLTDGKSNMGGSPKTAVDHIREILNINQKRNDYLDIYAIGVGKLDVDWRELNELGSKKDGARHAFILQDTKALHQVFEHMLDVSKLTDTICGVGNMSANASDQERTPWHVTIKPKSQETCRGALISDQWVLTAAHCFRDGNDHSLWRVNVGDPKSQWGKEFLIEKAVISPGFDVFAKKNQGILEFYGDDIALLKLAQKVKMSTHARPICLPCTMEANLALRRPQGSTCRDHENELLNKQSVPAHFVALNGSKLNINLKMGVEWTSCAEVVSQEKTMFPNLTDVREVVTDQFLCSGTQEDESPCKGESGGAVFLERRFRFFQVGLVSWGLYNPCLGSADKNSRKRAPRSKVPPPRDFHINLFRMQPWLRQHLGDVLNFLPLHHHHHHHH

B1: RF16-214 (antibody, V domains shown)
VH: EVQLLESGGGLVQPGGSLRLSCAASGFTFSWYQMMWVRQAPGKGLEWVSRIYPSGGGTAYADSVKGRFTISRDNSKNTLYLQMNSLRAEDTAVYYCARDAGYGDNWGQGTLVTVSS
VL: QSALTQPPSVSVSPGQTASITCSGDKLGEKYASWYQQKAGQSPVMVIYQDRKRPSGIPERFSGSNSGNTATLTISGTQAMDEADYYCQAWDTRAVVFGGGTKLTVLG
For the molecule B1, the Kd (in general, the free concentration of one partner at which half of the binding sites on the other are occupied at equilibrium, for simple one-to-one binding) came to 45.5 nM with human C2 A326S, 144 nM with human C2 G466A and 16.4 nM with human C2 E433A. Moreover, in the assay with human C2 D282A, the binding result was “no binding”.

For the origin of these results see US20220332804A1 (CSL INNOVATION, published 2022).
